According to patent US20260275319:

Tests used:
[1] = biological target: T1, (15)KDPGA(10F) peptide, M. jannaschii MtrA-derived
T1 chain: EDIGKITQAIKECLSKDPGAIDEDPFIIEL

[2] = biological target: T2, PGA(10) peptide, M. jannaschii MtrA-derived
T2 chain: PGAIDEDPFIIEL

[3] = biological target: T3, (5)KDPGA(10F) peptide, M. mazei MtrA-derived
T3 chain: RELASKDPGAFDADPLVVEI

[4] = biological target: T4, PGA(10F) peptide, M. jannaschii MtrA-derived
T4 chain: PGAIDEDPFIIEL

[5] = biological target: T5, M. mazei Ub-(5)KDPGA(15) with N-terminal His-tag
T5 chain: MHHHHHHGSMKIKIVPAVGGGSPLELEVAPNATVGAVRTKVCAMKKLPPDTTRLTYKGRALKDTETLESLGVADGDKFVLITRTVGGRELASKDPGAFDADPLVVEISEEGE

[6] = biological target: T6, PGA(5) peptide, M. mazei MtrA-derived
T6 chain: PGAFDADP

[7] = biological target: T7, (0)KDPGA(10) peptide, M. mazei MtrA-derived
T7 chain: KDPGAFDADPLVVEI

[8] = biological target: T8, (15)KDPGA(10) peptide, M. jannaschii MtrA-derived, without fluorophore
T8 chain: T1 chain

[9] = biological target: T9, PGA(10) peptide, M. mazei MtrA-derived
T9 chain: PGAFDADPLVVEI

[10] = biological target: T10, M. mazei PGA(15)-Ub with C-terminal His-tag
T10 chain: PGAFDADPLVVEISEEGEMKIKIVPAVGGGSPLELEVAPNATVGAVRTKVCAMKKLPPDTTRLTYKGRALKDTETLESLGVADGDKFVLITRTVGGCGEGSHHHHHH

B1: M. jannaschii Adriase with C-terminal His-tag (protein)
chain: SLIICYYGKNGAVIGGDRRQIFFRGSEENRKILEEKLYSGEIKSEEELYKLAEKLNIKIIIEDDREKVRKISDSVVCGEVRSLGIDAKRRRVYATKGKCAIVDILNDTVTNQTIKEGFGIVVLGNRFLKKKAEEELKRTAKLFPMMPIQQIEDAIKEIFEKLKWHPTVSKEYDIYSVNKYEKNFEEVIKKDIESLFKYREQLRKQLIDFGKVMSIVNKIVKNGEIGVIKDGKLHLYDDYIAIDKIDPNPKVFKVVDVEGNFKDGDIVVIENGDMKIKGTNEKVTTKYIIIHKGSHHHHHH
maximum ligation rate, recombination of (15)KDPGA(10F) with PGA(10), Michaelis-Menten fit [1]: maximum rate of ~1.4 ligations per enzyme and second | substrate concentration at half maximal reaction speed, recombination of (15)KDPGA(10F) with PGA(10) [1]: The half maximal reaction speed is observed at a substrate concentration of 23 µM each | maximum ligation rate, recombination of (15)KDPGA(10F) with PGA(10), Michaelis-Menten fit [2]: maximum rate of ~1.4 ligations per enzyme and second | substrate concentration at half maximal reaction speed, recombination of (15)KDPGA(10F) with PGA(10) [2]: The half maximal reaction speed is observed at a substrate concentration of 23 µM each

B2: M. mazei Adriase with C-terminal His-tag (protein)
chain: TLVIAFIGKNGAVMAGDMREITFEGEKPDREKLEKELYSGSIVTDEEMQKKAEEFGVKITVADCKEKVSERNGVLVGEVSSAEGGVVKKRRLYASAGNFAIAELINTEMTLTSQGKGSNFIAFGNEFTKQVANKCFKDNWTKKSNLQDAVKILILCMETVARKTASVSKQFMIVQTASNADVLKVVEKDRNCGSHHHHHH
maximum ligation rate, ligation of (5)KDPGA(10F) with PGA(10), Michaelis-Menten fit [3]: a maximum rate of ~2.25 ligations per enzyme and second | substrate concentration at half maximal reaction speed, ligation of (5)KDPGA(10F) with PGA(10) [3]: The half maximal reaction speed is observed at a substrate concentration of ~9 µM each | ligase activity with M. jannaschii (15)KDPGA(10) and PGA(10F) peptides, fluorescent product on SDS-PAGE [4]: also M. mazei Adriase showed activity when incubated with the M. jannaschii derived peptides | ligation rate coefficient at 25 µM substrate, ligation of Ub-(5)KDPGA(15) with PGA(15)-Ub [5]: 0.74±0.05 sec^-1 at 25 µM | ligation rate coefficient at 50 µM substrate, ligation of Ub-(5)KDPGA(15) with PGA(15)-Ub [5]: 0.88±0.07 sec^-1 at 50 µM | ligation rate coefficient at 100 µM substrate, ligation of Ub-(5)KDPGA(15) with PGA(15)-Ub [5]: 0.90±0.14 sec^-1 at 100 µM substrate concentration | maximum rate of the protein-protein ligation of Ub-(5)KDPGA(15) with PGA(15)-Ub [5]: a maximum rate of 0.92 ligations per enzyme and second | substrate concentration at the half-maximum rate, ligation of Ub-(5)KDPGA(15) with PGA(15)-Ub [5]: the half-maximum rate is observed at a substrate concentration of 2.2 µM each | ligase activity with PGA(5) as secondary and Ub-(5)KDPGA(15) as primary substrate, SDS-PAGE time course [6]: No Adriase activity was observed with (0)KDPGA(10) or PGA(5) substrates (n.d.; SEQ ID NO: 531 and 529) | ligase activity with (0)KDPGA(10) as primary and PGA(15)-Ub as secondary substrate, SDS-PAGE time course [7]: No Adriase activity was observed with (0)KDPGA(10) or PGA(5) substrates (n.d.; SEQ ID NO: 531 and 529) | ligase activity with M. jannaschii (15)KDPGA(10) and PGA(10F) peptides, fluorescent product on SDS-PAGE [8]: also M. mazei Adriase showed activity when incubated with the M. jannaschii derived peptides | maximum ligation rate, ligation of (5)KDPGA(10F) with PGA(10), Michaelis-Menten fit [9]: a maximum rate of ~2.25 ligations per enzyme and second | substrate concentration at half maximal reaction speed, ligation of (5)KDPGA(10F) with PGA(10) [9]: The half maximal reaction speed is observed at a substrate concentration of ~9 µM each | ligation rate coefficient at 25 µM substrate, ligation of Ub-(5)KDPGA(15) with PGA(15)-Ub [10]: 0.74±0.05 sec^-1 at 25 µM | ligation rate coefficient at 50 µM substrate, ligation of Ub-(5)KDPGA(15) with PGA(15)-Ub [10]: 0.88±0.07 sec^-1 at 50 µM | ligation rate coefficient at 100 µM substrate, ligation of Ub-(5)KDPGA(15) with PGA(15)-Ub [10]: 0.90±0.14 sec^-1 at 100 µM substrate concentration | maximum rate of the protein-protein ligation of Ub-(5)KDPGA(15) with PGA(15)-Ub [10]: a maximum rate of 0.92 ligations per enzyme and second | substrate concentration at the half-maximum rate, ligation of Ub-(5)KDPGA(15) with PGA(15)-Ub [10]: the half-maximum rate is observed at a substrate concentration of 2.2 µM each
